Source: PMC8338941, “Puf6 primes 60S pre-ribosome nuclear export at low temperature”

B1: KL-TLGAAA (H68-H88-H22 RNA), Cy5 (structured_RNA)
RNA: UGAAGAAAUUCAAAAAAAAAGCUCGGAAUUUGAGCAAAAAAAAAAAACGGUGGUAAAUUCCAUCG

How the values were obtained:
Puf6-PUM [1] = target: T1, Puf6-PUM (Saccharomyces cerevisiae, UniProt Q04373 161-656); test: fluorescence anisotropy; buffer promoting tertiary contact; Anisotropy: 2.5 nM Cy5-RNA, 0.16 nM-20 uM protein, 27 C (stated for H68), buffer composition not in the material; FRET: 20 mM HEPES pH 7.4, 100 mM K+ (116 mM KCl in the supplement), 0-100 mM Mg2+; conditions: protein: recombinant; (pET47-Puf6 (161-656)); label: Cy5 (sCy5; sCy3 in the FRET construct); three hairpins, H22-H88 kissing loop, GAAA tetraloop docking
Puf6-PUM [2] = target: T1, Puf6-PUM; test: fluorescence anisotropy; 27 C; buffer promoting tertiary contact; Anisotropy: 2.5 nM Cy5-RNA, 0.16 nM-20 uM protein, 27 C (stated for H68), buffer composition not in the material; FRET: 20 mM HEPES pH 7.4, 100 mM K+ (116 mM KCl in the supplement), 0-100 mM Mg2+; conditions: protein: recombinant; (pET47-Puf6 (161-656)); label: Cy5 (sCy5); hairpin with GAAA tetraloop

T1 sequence (Q04373 161-656): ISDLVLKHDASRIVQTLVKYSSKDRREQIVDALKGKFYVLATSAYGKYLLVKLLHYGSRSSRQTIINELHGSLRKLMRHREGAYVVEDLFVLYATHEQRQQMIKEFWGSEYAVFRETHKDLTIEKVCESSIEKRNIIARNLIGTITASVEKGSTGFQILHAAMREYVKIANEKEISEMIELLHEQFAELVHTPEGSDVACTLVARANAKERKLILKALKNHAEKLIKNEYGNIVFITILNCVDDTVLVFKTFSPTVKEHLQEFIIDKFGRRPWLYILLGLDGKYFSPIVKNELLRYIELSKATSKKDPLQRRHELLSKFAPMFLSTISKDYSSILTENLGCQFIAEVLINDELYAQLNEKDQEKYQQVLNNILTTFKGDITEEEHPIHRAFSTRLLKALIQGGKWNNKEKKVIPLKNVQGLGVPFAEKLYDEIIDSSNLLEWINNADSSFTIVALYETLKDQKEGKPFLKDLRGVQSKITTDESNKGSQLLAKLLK

| Binder | Kd (Puf6-PUM [1]) | Kd (Puf6-PUM [2]) |
| --- | --- | --- |
| B1 | ~0.125 µM |  |
| UGAAGAAAUUCA (structured_RNA) [H68 RNA] |  | ~10 µM |
